Measurements from patent US11697815B2, “Regulation of gene expression through aptamer-modulated polyadenylation” (MeiraGTx UK II Limited, priority 2016, dated 2023).

How the values were obtained:
Type in all cases: cell-based
[1] = tested on: firefly luciferase expression; test: Firefly luciferase assay of HEK 293 cells transfected with U1_Gua riboswitch constructs, with or without guanine; conditions: for fold increase of luciferase activity upon guanine treatment: 500 μM guanine
Description: Plasmid constructs: The EGFP gene in pEGFP-C1 vector was replaced with firefly luciferase gene coding sequence to generate a pFLuc vector that contains an SV40 early polyadenylation signal sequence. Oligos containing either wild type or mutant U1 binding site from the 5′ splice site of human DHFR exon 2 and xpt-guanine aptamer sequence followed by the complementary sequence of the last 7 nt of the U1 site sequence were synthesized (IDT) and cloned into the pFLuc vector using the Gibson cloning strategy and kit (NEB).
Transfection and aptamer ligand treatment: HEK 293 cells were transfected as described in Example 1. Four hours after transfection, the media was aspirated, and new media with or without 500 μM guanine was added.
Firefly luciferase assay of cultured cells: Twenty-four hours after the media change, the plates were removed from the incubator, and equilibrated to RT for several minutes on a lab bench, then aspirated. Glo-lysis buffer (Promega, 100 uL, RT) was added, and the plates allowed to remain at RT for at least 5 minutes. Then, the well contents were mixed by 50 uL trituration, and 20 uL of each sample was mixed with 20 μL of bright-glo reagent (Promega) that had been diluted to 10% in glo-lysis buffer. The 96 wells were spaced on an opaque white 384-well plate. Following a 5 min incubation at RT, luminescence was measured using a Tecan machine with 500 mSec read time. The luciferase activity was expressed as mean relative light unit (RLU)±S.D.
Plasmid constructs: SV40 early polyadenylation sequence was replaced with human beta globin polyA sequence in pFLuc vector to generate pFLuc_HBGPA. Oligos containing either wild type or mutant U1 binding site from 5′ ss of human DHFR exon 2 and xpt-guanine aptamer sequence followed by the complementary sequence of last 7 nt of U1 site sequence were synthesized (IDT) and cloned into pFLuc_HBGPA vector using Gibson cloning strategy and kit (NEB).
Transfection and luciferase assay were as described in Example 7.

[2] = tested on: Renilla luciferase expression; test: Renilla luciferase assay of HEK 293 cells transfected with U1_theo riboswitch constructs, with or without theophylline
Experimental: Transfection: 3.5×10^4 HEK 293 cells were plated in a 96-well flat bottom plate the day before transfection. Plasmid DNA (500 ng) was added to a tube or a 96-well U-bottom plate. Separately, TransIT-293 reagent (Mirus; 1.4 μl) was added to 50 μl Opti-mem I media (Life Technologies), and allowed to sit for 5 minutes at room temperature (“RT”). Then, 50 μl of this diluted transfection reagent was added to the DNA, mixed, and incubated at RT for 20 min. Finally, 7 μl of this solution was added to a well of cells in the 96-well plate.
Renilla luciferase assay of cultured cells: 24 hours after the media change, plates were removed from the incubator, and equilibrated to RT for several minutes on a lab bench, and the media aspirated. Glo-lysis buffer (Promega, 100 μl, RT) was added, and the plates allowed to remain at room temp for at least 5 minutes. Then, the well contents were mixed by 50 μl trituration, and 20 μl of each well was mixed with 20 μl of Renilla-glo reagent in a solid-white 384-well plate. Ten minutes later, luminescence was measured using a Tecan machine with 500 msec read time. The luciferase activity was expressed as mean relative light unit (RLU)±SD.
Oligonucleotides containing either the full length of sequences of the stem from the stem-loop structure and theophylline aptamer or the truncated sequences of the stem, were synthesized (IDT) and cloned into pRL-SV40 vector using the Gibson Assembly Cloning Kit (NEB). Construct sequences were verified by DNA sequencing (Genewiz).
Transfection and aptamer ligand treatment: HEK 293 cells were transfected as described in Example 1. Four hours after transfection, the media was aspirated, and new media with or without 3 mM theophylline was added. A Renilla luciferase assay was performed 20 to 24 hours after theophylline treatment as described in Example 1. The induction fold was expressed as the quotient of luciferase activity obtained in the presence of aptamer ligand divided by the value obtained in the absence of the aptamer ligand.
Oligos containing 4 copies of the U1_theo_8_1 sequence in tandem were synthesized (IDT) and cloned using Gibson strategy and cloning kit (NEB). HEK 293 cells were transfected and Renilla luciferase assay was performed as described in Example 4.

[3] = tested on: Renilla luciferase expression; test: as above; remark: listed apart in the source

B1: U1_Gua_2: U1 site linked with xpt-guanine aptamer, 110 nt upstream of SV40 early poly(A) in pFLuc (nucleic acid)
DNA: TCATAAAGGCCAAGAAGGGCGGAAAGATCGCCGTGTAAGCCATACCACATTTGTAGAGGTTTTACTTGCTTTAAAAAACCTCCCACACCTAAGGTAATGTATAATCGCGTGGATATGGCACGCAAGTTTCTACCGGGCACCGTAAATGTCCGACTACATTACCCCCCTGAACCTGAAACATAAAATGAATGCAATTGTTGTTGTTAACTTGTTTATTGCAGCTTATAATGGTTACAAATAAAGCAATAGCATCACAAATTTCACAAATAAAGCATTTTTTTCACTGCATTCTAGTTGTGGTTTGTCCAAACTCATCAATGTATCTTAA
modifications: in pFLuc; U1_Gua_2 wt in pFLuc
notes: U1 site linked with xpt-guanine aptamer, 110 nt upstream of SV40 early poly(A) in pFLuc
[1]; SV40 early poly(A) signal
  fold increase of luciferase activity upon guanine treatment: 2.0 fold

B2: wtU1_Gua_HBGPA: wild type U1 site with xpt-guanine aptamer in pFLuc_HBGPA (human beta globin polyA sequence) (nucleic acid)
DNA: TCATAAAGGCCAAGAAGGGCGGAAAGATCGCCGTGTAAGGATCCAAGCTTATCGATACCGTCGACCTCGAGGTAATGTATAATCGCGTGGATATGGCACGCAAGTTTCTACCGGGCACCGTAAATGTCCGACTACATTACGGCCCAGATCTAATTCACCCCACCAGTGCAGGCTGCCTATCAGAAAGTGGTGGCTGGTGTGGCTAATGCCCTGGCCCACAAGTATCACTAAGCTCGCTTTCTTGCTGTCCAATTTCTATTAAAGGTTCCTTTGTTCCCTAAGTCCAACTACTAAACTGGGGGATATTATGAAGGGCCTTGAGCATCTGGATTCTGCCTAATAAAAAACATTTATTTTCATTGCAATGATGTATTT
modifications: in pFLuc_HBGPA; wtU1_Gua_HBGPA
[1]; human beta globin polyA sequence (pFLuc_HBGPA)
  fold increase of luciferase activity upon guanine treatment: 2.1 fold

B3: mutU1_Gua_HBGPA: mutant U1 site with xpt-guanine aptamer in pFLuc_HBGPA (nucleic acid)
DNA: TCATAAAGGCCAAGAAGGGCGGAAAGATCGCCGTGTAAGGATCCAAGCTTATCGATACCGTCGACCTCGATGGAATCTATAATCGCGTGGATATGGCACGCAAGTTTCTACCGGGCACCGTAAATGTCCGACTACATTACGGCCCAGATCTAATTCACCCCACCAGTGCAGGCTGCCTATCAGAAAGTGGTGGCTGGTGTGGCTAATGCCCTGGCCCACAAGTATCACTAAGCTCGCTTTCTTGCTGTCCAATTTCTATTAAAGGTTCCTTTGTTCCCTAAGTCCAACTACTAAACTGGGGGATATTATGAAGGGCCTTGAGCATCTGGATTCTGCCTAATAAAAAACATTTATTTTCATTGCAATGATGTATTT
modifications: in pFLuc_HBGPA; mutU1_Gua_HBGPA
[1]; guanine vs untreated, human beta globin polyA sequence
  induction of luciferase activity upon guanine treatment (in words): didn't induce luciferase activity

B4: U1_Gua_1: DHFR exon 2 5′ splice site U1 site linked with xpt-guanine aptamer, 149 nt upstream of SV40 early poly(A) in pFLuc (nucleic acid)
DNA: TCATAAAGGCCAAGAAGGGCGGAAAGATCGCCGTGTAAGCCATACCACATTAAGGTAATGTATAATCGCGTGGATATGGCACGCAAGTTTCTACCGGGCACCGTAAATGTCCGACTACATTACTGTAGAGGTTTTACTTGCTTTAAAAAACCTCCCACACCTCCCCCTGAACCTGAAACATAAAATGAATGCAATTGTTGTTGTTAACTTGTTTATTGCAGCTTATAATGGTTACAAATAAAGCAATAGCATCACAAATTTCACAAATAAAGCATTTTTTTCACTGCATTCTAGTTGTGGTTTGTCCAAACTCATCAATGTATCTTAA
modifications: in pFLuc; U1_Gua_1 wt in pFLuc
notes: DHFR exon 2 5′ splice site U1 site linked with xpt-guanine aptamer, 149 nt upstream of SV40 early poly(A) in pFLuc
[1]; SV40 early poly(A) signal
  fold increase of luciferase activity upon guanine treatment: 2.4 fold

B5: 4 copies of U1-theo_8_1: 4 copies of the U1_theo_8_1 sequence in tandem in the 3′ UTR of pRL-SV40 (nucleic acid)
DNA: TCAAATCGTTCGTTGAGCGAGTTCTCAAAAATGAACAATAATTCTAGAGCGGCCGCTTCGAGCAGACATGATAAGATACATTGATGAGTTTGGACAAACCAAACCCAGGTAAGTGATACCAGCCGAAAGGCCCTTGGCAGCACTTACCTGGACAACTAGAATGCAGTGAAAAAAGAGTTTGGACAAACCAAACCCAGGTAAGTGATACCAGCCGAAAGGCCCTTGGCAGCACTTACCTGGACAACTAGAATGCAGTGAAAAAAATGCGAGTTTGGACAAACCAAACCCAGGTAAGTGATACCAGCCGAAAGGCCCTTGGCAGCACTTACCTGGACAACTAGAATGCAGTGAAAAAAATGCTTTATTTGTGAGAGTTTGGACAAACCAAACCCAGGTAAGTGATACCAGCCGAAAGGCCCTTGGCAGCACTTACCTGGACAACTAGAATGCAGTGAAAAAAATGCTTTATTTGTGAAATTTGTGATGCTATTGCTTTATTTGTAACCATTATAAGCTGCAATAAACAAGTTAACAACAAC
modifications: in pRL-SV40 3′ UTR; 4xU1_theo_8_1 in pRL-SV40
[2]; no theophylline
  reduction of basal level expression compared to single copy of U1_theo_8_1: 83%
[2]; with vs without theophylline
  change of luciferase activity after theophylline treatment (in words): increased the luciferase activity in a dose-dependent manner
[3]; 6 mM theophylline
  maximal induction fold of luciferase activity: 4.3 fold
[3]; upon theophylline treatment, maximal at 6 mM
  luciferase activity relative to 87-9 SL control vector: 40%

B6: U1_Gua_3: U1 site linked with xpt-guanine aptamer, 74 nt upstream of SV40 early poly(A) in pFLuc (nucleic acid)
DNA: TCATAAAGGCCAAGAAGGGCGGAAAGATCGCCGTGTAAGCCATACCACATTTGTAGAGGTTTTACTTGCTTTAAAAAACCTCCCACACCTCCCCCTGAACCTGAAACATAAAATGAATGCAATTGTAAGGTAATGTATAATCGCGTGGATATGGCACGCAAGTTTCTACCGGGCACCGTAAATGTCCGACTACATTACTGTTGTTAACTTGTTTATTGCAGCTTATAATGGTTACAAATAAAGCAATAGCATCACAAATTTCACAAATAAAGCATTTTTTTCACTGCATTCTAGTTGTGGTTTGTCCAAACTCATCAATGTATCTTAA
modifications: in pFLuc; U1_Gua_3 wt in pFLuc
notes: U1 site linked with xpt-guanine aptamer, 74 nt upstream of SV40 early poly(A) in pFLuc
[1]; SV40 early poly(A) signal
  fold increase of luciferase activity upon guanine treatment: 1.7 fold
